Laboratory results taken from the supplement of paper PMC7877785.
± gives the uncertainty stated by the source.

Assay: self-splicing fitness, log relative to wild type (ln ratio); higher = more splicing; Tetrahymena group I intron in knt gene, E. coli kanamycin selection, DiMSum; sequences stand for … in CUCUCU…GGAGGGAAAAGUUAUCAGGCAUGCACCUGGUAGCUAGUCUUUAAACCAAUAGAUUGCAUCGGUUUAAAAGGCAAGACCGUCAAAUUGCGGGAAAGGGGUCAACAGCCGUUCAGUACCAAGUCUCAGGGGAAACUUUGAGAUGGCCUUGCAAAGGGUAUGGUAAUAAGCUGACGGACAUGGUCCUAACCACGCAGCCAAGUCCUAAGUCAACAGAUCUUCUGUUGAUAUGGAUGCAGUUCACAGACUAAAUGUCGGUCGGGGAAGAUGUAUUCUUCUCAUAAGAUAUAGUCGGACCUCUCCUUAAUGGGAGCUAGCGGAUGAAGUGAUGCAACACUGGAGCCGCUGGGAACUAAUUUGUAUGCGAAAGUAUAUUGAUUAGUUUUGGAGUACUCGUGGUCG
Method in brief: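 Colonies from six replicate transformations of E. coli BL21(DE3) were pooled and amplicon-sequenced on an Illumina HiSeq 2500. The library placed an intron with all eight P1ex-region nucleotides randomised inside the knt kanamycin-resistance gene on pET-22b(+), and cells grew overnight at 37°C or 30°C on LB agar with or without 25 μg/mL kanamycin (plus 100 μg/mL carbenicillin, 50 μM IPTG, 0.2% rhamnose). Fitness is the DiMSum error-weighted combination of wild-type-normalised replicate fold changes, kanamycin versus none.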

Sequence | self-splicing fitness (ln) (30 °C) | self-splicing fitness (ln) (37 °C)
GUUAAGCAAUAUUACGUCGC | -1.61 ± 0.21 | -1.83 ± 0.28
GGAGAGCAAUAUUACGGCCA | -2.34 ± 0.36 | -1.21 ± 0.35
UAUAAGCAAUAUUACGUAGU | -3.65 ± 0.25 | -2.07 ± 0.25
AACUAGCAAUAUUACGUCGG | -3.57 ± 0.14 | -2.26 ± 0.16
UUAUAGCAAUAUUACGAUCG | -0.934 ± 0.12 | -0.581 ± 0.14
GAAAAGCAAUAUUACGGGGC | -2.89 ± 0.16 | -3.46 ± 0.37
UCGCAGCAAUAUUACGGUGA | -4.44 ± 0.46 | -2.45 ± 0.15
CAGAAGCAAUAUUACGUUCA | -2.03 ± 0.14 | -0.728 ± 0.1
ACCAAGCAAUAUUACGCUCG | -2.2 ± 0.12 | -1.32 ± 0.13
UAACAGCAAUAUUACGAUUG | -1.57 ± 0.056 | -0.741 ± 0.082
GCUCAGCAAUAUUACGCCCU | -1.18 ± 0.19 | 0.764 ± 0.18
UGACAGCAAUAUUACGGACU | -0.289 ± 0.063 | 0.203 ± 0.078
GUUCAGCAAUAUUACGGUGA | -2.66 ± 0.17 | -1.08 ± 0.13
AUAAAGCAAUAUUACGUCAC | -3.46 ± 0.14 | -3.09 ± 0.2
GAUCAGCAAUAUUACGAAAA | -0.449 ± 0.2 | -0.691 ± 0.23
UAAAAGCAAUAUUACGGGUC | -3.09 ± 0.25 | -2.82 ± 0.27
UACUAGCAAUAUUACGUGCC | -1.33 ± 0.14 | -2.6 ± 0.26
AUAAAGCAAUAUUACGAGGG | -3.4 ± 0.15 | -1.64 ± 0.12
CUACAGCAAUAUUACGUGCU |  | -2 ± 0.13
GUACAGCAAUAUUACGGCCU | -1.84 ± 0.17 | 0.0868 ± 0.17
AGGAAGCAAUAUUACGCCUC | -2.44 ± 0.44 | -0.418 ± 0.46
UGUUAGCAAUAUUACGCGUC | -3.45 ± 0.33 | -2.79 ± 0.36

Sequence | self-splicing fitness (ln) (30 °C) | self-splicing fitness (ln) (37 °C)
UGAGAGCAAUAUUACGGCUC | -3.55 ± 0.36 | 
CUCCAGCAAUAUUACGACUG | -3.12 ± 0.14 | -2.83 ± 0.16
GAUCAGCAAUAUUACGGAAC | -0.655 ± 0.094 | -0.0305 ± 0.12
CUAGAGCAAUAUUACGCACC | -2.44 ± 0.41 | 
UACAAGCAAUAUUACGGUGG | -1.65 ± 0.051 | -1.25 ± 0.064
UCCUAGCAAUAUUACGAUCA | -2.01 ± 0.1 | -1.36 ± 0.096
GUGUAGCAAUAUUACGCCCA |  | -0.199 ± 0.35
UCCUAGCAAUAUUACGCGUA | -2.95 ± 0.23 | -1.53 ± 0.14
UUCCAGCAAUAUUACGGAGA | -1.83 ± 0.084 | -0.628 ± 0.081
GGACAGCAAUAUUACGCCCG | -0.653 ± 0.24 | -0.591 ± 0.28
GAUCAGCAAUAUUACGACCA | -1.08 ± 0.092 | 0.352 ± 0.15
GGGCAGCAAUAUUACGUUUG | -1.17 ± 0.098 | -0.133 ± 0.11
UCCAAGCAAUAUUACGAAGG | -1.32 ± 0.11 | -0.206 ± 0.15
ACGUAGCAAUAUUACGACUC | -0.301 ± 0.26 | -0.584 ± 0.27
AAACAGCAAUAUUACGCGAC | -2.77 ± 0.21 | -1.68 ± 0.14
GGUGAGCAAUAUUACGGUGA | -2.81 ± 0.23 | -1.28 ± 0.21
CAUCAGCAAUAUUACGUUUU | -2.67 ± 0.1 | -1.8 ± 0.11
CCCUAGCAAUAUUACGGUAA | -2.69 ± 0.21 | -3.02 ± 0.32
AAUGAGCAAUAUUACGACAC | -2.71 ± 0.31 | 
AACAAGCAAUAUUACGCGCU | -0.49 ± 0.07 | -0.454 ± 0.078
UUGCAGCAAUAUUACGCUUU | -2.64 ± 0.12 | -2.11 ± 0.15
